# Results published in patent US20050159352A1, “Use of monocarboxylate transporter protein for thyroid hormone transport” (priority 2002, published 2005).
# Substrate: N[C@@H](Cc1ccc(Oc2cc(I)c(O)c(I)c2)c(I)c1)C(=O)O
# Assay: cells, lysate or membranes
# Conditions: other: net MCT8 transport, Michaelis-Menten analysis
# Protocol: Apparent Km values were calculated by fitting the plot of uptake rate (v) versus ligand concentration (5) to the Michaelis Menten equation: v=Vmax/(1+Km/S), wherein Vmax is the maximum uptake rate, and Km the Michaelis constant. Calculations were performed using the Slide Write Plus program version 5.01 (Advanced Graphics Software).
protein,measurement,value
MCT8 (Rattus norvegicus; G227D/I169T/S199P/T171I) (protein) MALPSPASEEAEGPCQEANQEYQEPVCSPVPEPEPEPEPEPEPEPEPVPVPPPEPQPEPEPQPLPDPAPLPVLGFEAEPVQEPEPTPTVETRGTARGFQPPEGGFGWIVVFAATWCNGSIFGIHNSVGILYSMLLEEEKEKNRQVEFQAAWVGALAMGMIFFCSPIVSTFIDRLGCRITATTGAAVAFIGLHTSSFTSPLSLRYFTYGILFGCGCSFAFQPSLVILDHYFQRRLGLANGVVSAGSSIFSMSFPFLIKMLGDRIKLAQTFQVLSTFMFVLTLLSLTYRPLLPSSQDTPSKRGAHTLRQRFLVQFRKYFNMRVFRQRTYRIWAFGIAAAALGYFVPYVHLMKYVEDKFKEIKETWVLLVCIGATSGLGRLVSGHISDSIPGLKKIYLQVLSFLLLGLMSMMIPLCRDFGGLIVVCLFLGLCDGFFITIMAPIAFELVGPMQASQAIGYLLGMMALPMIAGPPIAGLLRNCFGNYHVAFYFAGVPPIIGAVILFFVPLMHQRMFKKEQRESSKDKMLSHDPDPNGELLPGSPTPEEPI,Km,2.2 µM
